Test results taken from paper PMC5942779, “Identification of a peptide inhibitor for the histone methyltransferase WHSC1” (PLoS ONE, 2018).
Square brackets hold non-standard residues; d marks the D form. Nle = CCCC[C@H](N)C(=O)O

Legend:
Experiment in all cases: cell-based or functional assay
[1] = target: G9a (UniProt Q96KQ7 1-1210)
[2] = target: EZH2 (UniProt Q15910 1-746)
[3] = target: EZH1 (UniProt Q92800 1-747)
[4] = target: SETDB1 (UniProt Q15047 1-1291)
[5] = target: PRMT6 (UniProt Q96LA8 1-375)
[6] = target: SMYD2 (UniProt Q9NRG4 1-433)

Measured: Biochemical IC50 (enzymatic inhibition, panel of HMT enzymes)

SMYD2, sequence (Q9NRG4 whole entry): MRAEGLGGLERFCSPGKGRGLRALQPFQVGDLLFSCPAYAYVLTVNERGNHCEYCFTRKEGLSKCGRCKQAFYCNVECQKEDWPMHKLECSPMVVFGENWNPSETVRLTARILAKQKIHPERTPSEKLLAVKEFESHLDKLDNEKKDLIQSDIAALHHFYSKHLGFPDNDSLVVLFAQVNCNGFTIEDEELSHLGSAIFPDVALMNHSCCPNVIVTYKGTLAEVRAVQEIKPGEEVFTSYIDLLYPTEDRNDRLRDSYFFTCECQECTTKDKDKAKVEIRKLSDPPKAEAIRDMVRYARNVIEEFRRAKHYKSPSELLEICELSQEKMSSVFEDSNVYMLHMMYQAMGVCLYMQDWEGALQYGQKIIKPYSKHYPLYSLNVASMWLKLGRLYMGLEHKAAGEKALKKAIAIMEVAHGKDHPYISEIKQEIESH
PRMT6, sequence (Q96LA8 whole entry): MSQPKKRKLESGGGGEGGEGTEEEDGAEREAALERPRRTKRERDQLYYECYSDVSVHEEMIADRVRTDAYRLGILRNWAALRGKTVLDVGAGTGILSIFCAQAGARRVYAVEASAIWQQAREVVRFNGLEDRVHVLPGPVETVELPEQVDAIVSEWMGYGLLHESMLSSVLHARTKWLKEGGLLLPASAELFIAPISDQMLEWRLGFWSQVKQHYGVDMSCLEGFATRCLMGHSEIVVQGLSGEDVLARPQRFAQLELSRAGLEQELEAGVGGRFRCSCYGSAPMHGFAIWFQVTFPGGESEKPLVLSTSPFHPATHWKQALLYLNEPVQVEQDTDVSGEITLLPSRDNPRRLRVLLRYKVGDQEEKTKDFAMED
EZH2, sequence (Q15910 whole entry): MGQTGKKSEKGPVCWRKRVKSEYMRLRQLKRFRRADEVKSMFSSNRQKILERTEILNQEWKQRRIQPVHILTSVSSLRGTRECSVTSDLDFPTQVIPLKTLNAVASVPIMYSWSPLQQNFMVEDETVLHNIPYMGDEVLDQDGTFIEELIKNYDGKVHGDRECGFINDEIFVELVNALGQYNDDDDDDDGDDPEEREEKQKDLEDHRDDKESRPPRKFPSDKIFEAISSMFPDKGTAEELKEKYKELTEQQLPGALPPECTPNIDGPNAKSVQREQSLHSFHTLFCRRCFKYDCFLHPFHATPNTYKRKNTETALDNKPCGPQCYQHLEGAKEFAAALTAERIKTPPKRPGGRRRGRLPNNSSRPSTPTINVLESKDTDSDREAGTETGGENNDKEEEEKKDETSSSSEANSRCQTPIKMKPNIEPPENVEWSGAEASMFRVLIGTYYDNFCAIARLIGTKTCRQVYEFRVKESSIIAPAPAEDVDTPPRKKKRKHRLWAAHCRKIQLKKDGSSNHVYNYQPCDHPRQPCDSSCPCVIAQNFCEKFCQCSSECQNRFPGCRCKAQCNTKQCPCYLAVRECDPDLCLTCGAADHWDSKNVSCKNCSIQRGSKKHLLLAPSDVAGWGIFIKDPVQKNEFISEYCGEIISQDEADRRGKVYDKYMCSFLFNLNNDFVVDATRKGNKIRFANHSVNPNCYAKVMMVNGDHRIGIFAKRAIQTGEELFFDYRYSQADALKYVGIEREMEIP
G9a, sequence (Q96KQ7 whole entry): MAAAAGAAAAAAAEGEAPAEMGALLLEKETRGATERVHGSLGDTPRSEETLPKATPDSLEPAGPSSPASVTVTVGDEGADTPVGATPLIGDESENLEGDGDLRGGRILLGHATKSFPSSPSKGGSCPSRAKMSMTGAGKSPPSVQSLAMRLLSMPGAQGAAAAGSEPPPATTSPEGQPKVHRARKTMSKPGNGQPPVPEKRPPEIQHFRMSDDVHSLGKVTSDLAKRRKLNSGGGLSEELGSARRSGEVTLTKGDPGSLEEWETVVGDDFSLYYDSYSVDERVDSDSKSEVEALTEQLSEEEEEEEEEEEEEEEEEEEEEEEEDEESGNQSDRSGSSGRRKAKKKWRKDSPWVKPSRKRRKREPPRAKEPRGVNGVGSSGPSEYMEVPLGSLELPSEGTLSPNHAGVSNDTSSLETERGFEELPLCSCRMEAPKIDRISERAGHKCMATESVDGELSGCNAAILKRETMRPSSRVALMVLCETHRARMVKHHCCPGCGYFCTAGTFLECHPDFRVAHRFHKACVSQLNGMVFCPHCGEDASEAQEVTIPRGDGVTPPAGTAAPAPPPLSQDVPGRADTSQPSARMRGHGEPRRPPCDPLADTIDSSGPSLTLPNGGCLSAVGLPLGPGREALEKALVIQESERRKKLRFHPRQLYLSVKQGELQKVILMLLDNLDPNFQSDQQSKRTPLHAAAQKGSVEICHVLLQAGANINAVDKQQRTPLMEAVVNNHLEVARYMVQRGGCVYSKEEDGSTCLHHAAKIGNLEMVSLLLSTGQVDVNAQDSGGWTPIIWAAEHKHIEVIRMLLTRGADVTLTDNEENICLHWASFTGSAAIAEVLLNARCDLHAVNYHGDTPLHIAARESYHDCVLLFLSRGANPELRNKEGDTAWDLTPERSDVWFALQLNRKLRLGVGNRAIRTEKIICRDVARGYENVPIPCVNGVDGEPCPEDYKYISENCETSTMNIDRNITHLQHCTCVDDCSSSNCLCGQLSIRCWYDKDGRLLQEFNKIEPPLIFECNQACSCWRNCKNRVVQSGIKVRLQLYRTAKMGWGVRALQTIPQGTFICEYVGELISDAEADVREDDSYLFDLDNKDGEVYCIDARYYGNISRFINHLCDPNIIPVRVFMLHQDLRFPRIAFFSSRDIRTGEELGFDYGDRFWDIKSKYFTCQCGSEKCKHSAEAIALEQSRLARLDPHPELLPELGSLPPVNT
EZH1, sequence (Q92800 whole entry): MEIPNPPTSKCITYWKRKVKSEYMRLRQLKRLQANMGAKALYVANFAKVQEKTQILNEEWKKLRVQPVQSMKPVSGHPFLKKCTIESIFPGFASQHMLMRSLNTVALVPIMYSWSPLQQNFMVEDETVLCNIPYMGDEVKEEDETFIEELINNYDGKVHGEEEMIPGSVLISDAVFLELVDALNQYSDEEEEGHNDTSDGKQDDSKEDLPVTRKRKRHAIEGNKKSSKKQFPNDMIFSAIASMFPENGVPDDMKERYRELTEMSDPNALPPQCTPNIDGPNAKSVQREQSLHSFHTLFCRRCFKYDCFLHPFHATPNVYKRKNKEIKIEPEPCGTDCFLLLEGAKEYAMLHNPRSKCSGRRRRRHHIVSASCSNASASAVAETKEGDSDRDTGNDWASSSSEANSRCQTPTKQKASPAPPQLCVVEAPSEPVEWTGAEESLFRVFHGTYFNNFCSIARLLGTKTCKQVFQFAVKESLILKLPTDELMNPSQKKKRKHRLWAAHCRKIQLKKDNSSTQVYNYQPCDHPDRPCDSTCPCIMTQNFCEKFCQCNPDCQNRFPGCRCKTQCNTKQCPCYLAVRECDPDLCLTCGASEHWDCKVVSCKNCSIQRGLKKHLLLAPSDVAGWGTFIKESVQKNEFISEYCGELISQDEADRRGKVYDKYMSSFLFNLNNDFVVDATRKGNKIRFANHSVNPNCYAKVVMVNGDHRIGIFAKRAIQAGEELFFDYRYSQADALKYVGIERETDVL

Ac-GV[Nle]RI-NH2 [PTD2]
> 200 µM: all assays above
